± gives the uncertainty stated by the source.

This data set is described as follows: self-splicing fitness, log relative to wild type (ln ratio); higher = more splicing; Tetrahymena group I intron in knt gene, E. coli kanamycin selection, DiMSum; sequences stand for … in CUCUCU…GGAGGGAAAAGUUAUCAGGCAUGCACCUGGUAGCUAGUCUUUAAACCAAUAGAUUGCAUCGGUUUAAAAGGCAAGACCGUCAAAUUGCGGGAAAGGGGUCAACAGCCGUUCAGUACCAAGUCUCAGGGGAAACUUUGAGAUGGCCUUGCAAAGGGUAUGGUAAUAAGCUGACGGACAUGGUCCUAACCACGCAGCCAAGUCCUAAGUCAACAGAUCUUCUGUUGAUAUGGAUGCAGUUCACAGACUAAAUGUCGGUCGGGGAAGAUGUAUUCUUCUCAUAAGAUAUAGUCGGACCUCUCCUUAAUGGGAGCUAGCGGAUGAAGUGAUGCAACACUGGAGCCGCUGGGAACUAAUUUGUAUGCGAAAGUAUAUUGAUUAGUUUUGGAGUACUCGUGGUCG
In outline: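 Pooled colonies went to amplicon sequencing on an Illumina HiSeq 2500 after six replicate transformations. The plates were LB agar with 100 μg/mL carbenicillin, 50 μM IPTG and 0.2% rhamnose, with or without 25 μg/mL kanamycin, incubated overnight at 37°C or 30°C. The E. coli BL21(DE3) library had all eight P1ex-region intron nucleotides randomised, the intron placed in the knt kanamycin-resistance gene on pET-22b(+). DiMSum fitness is the error-weighted combination of replicate fold changes, kanamycin against none, normalised to wild type.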

Consider AUCUAGCAAUAUUACGUUUG, for which the “self-splicing fitness (ln)” value by setting is: (30 °C) -3.39 ± 0.28; (37 °C) -2.04 ± 0.37.

Take ACGUAGCAAUAUUACGGGCA: the “self-splicing fitness (ln)” value runs as follows: (30 °C) -0.955 ± 0.099; (37 °C) -0.418 ± 0.12.

As to GCAAAGCAAUAUUACGGCCG, the “self-splicing fitness (ln)” value (30 °C) was -0.0405 ± 0.18 and the “self-splicing fitness (ln)” value (37 °C) was -1.41 ± 0.33.

For the sequence GACAAGCAAUAUUACGUAAA, the “self-splicing fitness (ln)” value by setting is: (30 °C) -1.75 ± 0.069; (37 °C) -1.09 ± 0.091.

On to CCCUAGCAAUAUUACGCCCG, for which the “self-splicing fitness (ln)” value reads like this: (30 °C) -3.81 ± 0.37; (37 °C) -2.12 ± 0.37.

For the sequence AGAUAGCAAUAUUACGUAUC, the “self-splicing fitness (ln)” value by setting is: (30 °C) -2.64 ± 0.17; (37 °C) -1.71 ± 0.18.

Regarding CAACAGCAAUAUUACGCCGU, the “self-splicing fitness (ln)” value was -4.14 ± 0.29 (30 °C) and -2.82 ± 0.38 (37 °C).

Consider CCCCAGCAAUAUUACGCUAA, for which the “self-splicing fitness (ln)” value is -3.55 ± 0.18 (30 °C) and -3.2 ± 0.21 (37 °C).

Take GACCAGCAAUAUUACGCCCG: the “self-splicing fitness (ln)” value was -1.72 ± 0.12 (30 °C) and -0.754 ± 0.13 (37 °C).

As to UGUCAGCAAUAUUACGGCAA, the “self-splicing fitness (ln)” value (30 °C) is -0.754 ± 0.075 and the “self-splicing fitness (ln)” value (37 °C) is -0.0955 ± 0.098.

On to AGCCAGCAAUAUUACGUAAU, for which the “self-splicing fitness (ln)” value is -1.71 ± 0.11 (30 °C) and -0.608 ± 0.12 (37 °C).

Take CCAUAGCAAUAUUACGGUCA: the “self-splicing fitness (ln)” value runs as follows: (30 °C) -3 ± 0.16; (37 °C) -1.44 ± 0.2.

Take AAGAAGCAAUAUUACGGCAC: the “self-splicing fitness (ln)” value (30 °C) is -0.764 ± 0.08 and the “self-splicing fitness (ln)” value (37 °C) was -0.298 ± 0.12.

In the case of ACGGAGCAAUAUUACGGGUU, the “self-splicing fitness (ln)” value runs as follows: (30 °C) -3.25 ± 0.16; (37 °C) -3.6 ± 0.3.

As to AUGAAGCAAUAUUACGCAGC, the “self-splicing fitness (ln)” value is, setting by setting: (30 °C) -2.75 ± 0.24; (37 °C) -0.841 ± 0.38.

UAAGAGCAAUAUUACGAGAU: the “self-splicing fitness (ln)” value runs as follows: (30 °C) -3.76 ± 0.33; (37 °C) -2.32 ± 0.31.

ACAGAGCAAUAUUACGCGCA: the “self-splicing fitness (ln)” value (30 °C) is -3.09 ± 0.26 and the “self-splicing fitness (ln)” value (37 °C) is -0.798 ± 0.18.

As for CACGAGCAAUAUUACGCUUC, the “self-splicing fitness (ln)” value is -3.96 ± 0.24 (30 °C) and -3.25 ± 0.3 (37 °C).

Turning to CAGUAGCAAUAUUACGAGAG, the “self-splicing fitness (ln)” value (30 °C) was -3.95 ± 0.24 and the “self-splicing fitness (ln)” value (37 °C) is -2.76 ± 0.19.

As for UCGUAGCAAUAUUACGAGGU, the “self-splicing fitness (ln)” value (30 °C) is -3.27 ± 0.21 and the “self-splicing fitness (ln)” value (37 °C) is -2.06 ± 0.19.

With AUCUAGCAAUAUUACGCCAU, the “self-splicing fitness (ln)” value by setting is: (30 °C) -2.72 ± 0.2; (37 °C) -1.05 ± 0.15.

Regarding GCACAGCAAUAUUACGGGGC, the “self-splicing fitness (ln)” value was -3.43 ± 0.16 (30 °C) and -2.62 ± 0.18 (37 °C).

Turning to CUGCAGCAAUAUUACGGCAU, the “self-splicing fitness (ln)” value reads like this: (30 °C) -0.953 ± 0.057; (37 °C) -0.378 ± 0.071.

For the sequence ACCUAGCAAUAUUACGAAAG, the “self-splicing fitness (ln)” value was -2.49 ± 0.11 (30 °C) and -2.2 ± 0.13 (37 °C).

As to ACUCAGCAAUAUUACGCAGA, the “self-splicing fitness (ln)” value is, setting by setting: (30 °C) -3.11 ± 0.2; (37 °C) -2.55 ± 0.22.

With CUUAAGCAAUAUUACGAAAU, the “self-splicing fitness (ln)” value by setting is: (30 °C) -3.41 ± 0.24; (37 °C) -2.48 ± 0.26.

In the case of AACAAGCAAUAUUACGAGGA, the “self-splicing fitness (ln)” value by setting is: (30 °C) -1.76 ± 0.14; (37 °C) -2.42 ± 0.16.

Take GACUAGCAAUAUUACGUUAU: the “self-splicing fitness (ln)” value (30 °C) is -2.4 ± 0.098 and the “self-splicing fitness (ln)” value (37 °C) was -1.28 ± 0.11.

Take GGAGAGCAAUAUUACGAAUC: the “self-splicing fitness (ln)” value reads like this: (30 °C) -3.58 ± 0.49; (37 °C) -2.4 ± 0.39.

Regarding GAAGAGCAAUAUUACGUAUU, the “self-splicing fitness (ln)” value reads like this: (30 °C) -3.86 ± 0.28; (37 °C) -1.04 ± 0.13.

For the sequence CGGCAGCAAUAUUACGCGAA, the “self-splicing fitness (ln)” value is, setting by setting: (30 °C) -2.67 ± 0.13; (37 °C) -1.68 ± 0.15.

As for UACGAGCAAUAUUACGAGCU, the “self-splicing fitness (ln)” value (30 °C) is -2.28 ± 0.33.

For CGAGAGCAAUAUUACGACCA, the “self-splicing fitness (ln)” value (30 °C) is -2.78 ± 0.37.

With GGGUAGCAAUAUUACGGAAC, the “self-splicing fitness (ln)” value (30 °C) is -0.98 ± 0.11 and the “self-splicing fitness (ln)” value (37 °C) is -1.49 ± 0.19.

UCUGAGCAAUAUUACGCUUU: the “self-splicing fitness (ln)” value is, setting by setting: (30 °C) -3.64 ± 0.23; (37 °C) -3.19 ± 0.19.

Regarding UGAGAGCAAUAUUACGUACA, the “self-splicing fitness (ln)” value was -2.02 ± 0.21 (30 °C) and -0.955 ± 0.26 (37 °C).

On to AACCAGCAAUAUUACGUUUC, for which the “self-splicing fitness (ln)” value by setting is: (30 °C) -4.08 ± 0.17; (37 °C) -2.92 ± 0.21.

With UUACAGCAAUAUUACGAGAA, the “self-splicing fitness (ln)” value runs as follows: (30 °C) -1.83 ± 0.2; (37 °C) -1.59 ± 0.2.

Turning to UAAGAGCAAUAUUACGGGUG, the “self-splicing fitness (ln)” value reads like this: (30 °C) -3.49 ± 0.18; (37 °C) -1.06 ± 0.13.

Consider AGCAAGCAAUAUUACGUUAA, for which the “self-splicing fitness (ln)” value is -3.3 ± 0.17 (30 °C) and -1.68 ± 0.1 (37 °C).

In the case of GUUCAGCAAUAUUACGCGCC, the “self-splicing fitness (ln)” value (30 °C) was -1.96 ± 0.31 and the “self-splicing fitness (ln)” value (37 °C) is -1.43 ± 0.34.

As for CAAUAGCAAUAUUACGAACC, under “30 °C”, the “self-splicing fitness (ln)” value was -2.22 ± 0.35.

On to GUAAAGCAAUAUUACGAUUA, for which the “self-splicing fitness (ln)” value is, setting by setting: (30 °C) 0.307 ± 0.087; (37 °C) 0.518 ± 0.1.

As for CCACAGCAAUAUUACGACAU, the “self-splicing fitness (ln)” value is -3.702 ± 0.019 (30 °C) and -2.84 ± 0.037 (37 °C).

Regarding ACUCAGCAAUAUUACGUUCC, the “self-splicing fitness (ln)” value (30 °C) was -2.15 ± 0.22 and the “self-splicing fitness (ln)” value (37 °C) was -0.606 ± 0.2.

Consider GAGGAGCAAUAUUACGUGUA, for which the “self-splicing fitness (ln)” value (37 °C) is -3.62 ± 0.35.

Take GUCUAGCAAUAUUACGCCAU: the “self-splicing fitness (ln)” value (30 °C) is -2.11 ± 0.26 and the “self-splicing fitness (ln)” value (37 °C) is -2.04 ± 0.18.

For CUAAAGCAAUAUUACGUGCU, the “self-splicing fitness (ln)” value is, setting by setting: (30 °C) -2.89 ± 0.14; (37 °C) -2.75 ± 0.25.

In the case of UUACAGCAAUAUUACGAUUU, the “self-splicing fitness (ln)” value is -1.09 ± 0.059 (30 °C) and -0.22 ± 0.084 (37 °C).

As to CCUAAGCAAUAUUACGUUUU, the “self-splicing fitness (ln)” value (30 °C) is -3.89 ± 0.18 and the “self-splicing fitness (ln)” value (37 °C) was -1.3 ± 0.13.

Consider AAGAAGCAAUAUUACGGGAA, for which the “self-splicing fitness (ln)” value reads like this: (30 °C) -1.79 ± 0.14; (37 °C) -1.85 ± 0.13.

Consider AUGGAGCAAUAUUACGAUGA, for which the “self-splicing fitness (ln)” value by setting is: (30 °C) -2.98 ± 0.41; (37 °C) -1.36 ± 0.46.

Take GAAAAGCAAUAUUACGAUGA: the “self-splicing fitness (ln)” value reads like this: (30 °C) -0.7 ± 0.1; (37 °C) -0.295 ± 0.11.

Turning to UUCUAGCAAUAUUACGAGUC, the “self-splicing fitness (ln)” value (37 °C) was -1.86 ± 0.39.

Regarding CAUUAGCAAUAUUACGUCGA, the “self-splicing fitness (ln)” value reads like this: (30 °C) -2.75 ± 0.14; (37 °C) -2.05 ± 0.12.

On to AACAAGCAAUAUUACGUGAU, for which the “self-splicing fitness (ln)” value was -2.2 ± 0.069 (30 °C) and -1.46 ± 0.08 (37 °C).

As to UAGCAGCAAUAUUACGGACG, the “self-splicing fitness (ln)” value reads like this: (30 °C) -0.528 ± 0.08; (37 °C) -0.837 ± 0.1.

As to AAUGAGCAAUAUUACGGCGA, the “self-splicing fitness (ln)” value by setting is: (30 °C) -2.77 ± 0.34; (37 °C) -0.446 ± 0.19.

As to GGAAAGCAAUAUUACGUGUG, the “self-splicing fitness (ln)” value was -2.41 ± 0.087 (30 °C) and -0.505 ± 0.078 (37 °C).

Turning to CUCCAGCAAUAUUACGGCGC, the “self-splicing fitness (ln)” value runs as follows: (30 °C) -3.37 ± 0.18; (37 °C) -2.81 ± 0.27.

Regarding GCCAAGCAAUAUUACGUUUG, the “self-splicing fitness (ln)” value is -3.38 ± 0.16 (30 °C) and -2.61 ± 0.21 (37 °C).

Values taken from the supplement of paper PMC7877785.
